What was measured:
[1] = HPLC analysis of the percentage of (S)-enantiomer in the LCAA reaction product; format: biochemical; settings: LCAA product of the Example 1 reaction, FIG. 4
Procedure: (§1) To produce (S)-LCAA from 2-oxonon-8-enoic acid, a reaction was performed under the following conditions. In 200 mL total volume and a buffered pH of 9.5, the aqueous reaction mixture contained 10 mM 2-oxonon-8-enoic acid, 12 mM glucose, 1 mM NAD^+, 50 mg of purified glucose dehydrogenase (GDH-105; Codexis, Redwood City, Calif.), 2 M NH4Cl/OH, and approximately 60 mL/L of purified leucine dehydrogenase cell-free extract. FIG. 2 depicts the reaction scheme for converting 2-oxonon-8-enoic acid to (S)-LCAA using leucine dehydrogenase. The mixture was incubated at 30° C. and with shaking at 150 rpm for four hours.
To determine what percentage of the LCAA reaction product of the reaction was (S)-LCAA, aliquots of the reaction mixture were analyzed using high performance liquid chromatography (HPLC).

[2] = Reductive amination of 2-oxonon-8-enoic acid to (S)-LCAA by leucine dehydrogenase (NADH consumption at 340 nm, HPLC of aliquots); format: biochemical; settings: by four hours; 10 mM 2-oxonon-8-enoic acid, 2 M NH4Cl/OH, pH 9.5, 30° C., GDH/glucose NADH regeneration; FIG. 3
Procedure: as §1
Enzyme activity was measured spectrophotometrically by monitoring the consumption of NADH in the reductive amination at 340 nm. Activity was defined as the number of micromoles of NADH consumed in 1 minute (μmol min^−1). Aliquots of the reaction mixture were obtained periodically during the course of the reaction and subjected to analysis by high performance liquid chromatography (HPLC).
To increase the affinity of LDH for the 2-oxonon-8-enoic acid substrate and, thus, enhance the enzyme's activity for producing (S)-LCAA, amino acid substitutions were made within the region of LDH that binds to the substrate. Specifically, amino acid substitutions were introduced at position 42 of B. cereus leucine dehydrogenase (SEQ ID NO:1) using standard mutagenesis techniques. Wild-type B. cereus LDH, along with 19 variants (one for each amino acid substitution at position 42) were expressed and isolated as described in Example 1. The enzymatic activity of the variant proteins was evaluated alongside wild-type B. cereus LDH in the reaction described in Example 1. […] While the disclosure is not bound by any particular theory or mechanism of action, the substitutions that increased the enzymatic activity of the LDH enzyme are believed to have increased the depth of the substrate binding pocket in LDH and thereby increased the affinity of LDH for the 2-oxonon-8-enoic acid substrate.

B1: wild-type B. cereus LDH: wild-type B. cereus leucine dehydrogenase, amino acid sequence SEQ ID NO:1 (UniProt P0A392), cell-free extract from E. coli (protein, listed as Bacillus cereus)
chain: MTLEIFEYLEKYDYEQVVFCQDKESGLKAIIAIHDTTLGPALGGTRMWTYDSEEAAIEDALRLAKGMTYKNAAAGLNLGGAKTVIIGDPRKDKSEAMFRALGRYIQGLNGRYITAEDVGTTVDDMDIIHEETDFVTGISPSFGSSGNPSPVTAYGVYRGMKAAAKEAFGTDNLEGKVIAVQGVGNVAYHLCKHLHAEGAKLIVTDINKEAVQRAVEEFGASAVEPNEIYGVECDIYAPCALGATVNDETIPQLKAKVIAGSANNQLKEDRHGDIIHEMGIVYAPDYVINAGGVINVADELYGYNRERALKRVESIYDTIAKVIEISKRDGIATYVAADRLAEERIASLKNSRSTYLRNGHDIISRR
With B1 the “percentage of the reaction product that was the (S)-enantiomer” value [1] was “greater than 99.5%” and the “conversion of the substrate to LCAA” value [2] was “greater than 99.5%”.
